# Test system: Escherichia coli TOP10
# Assay: shrunken log2 fold change of peptide-encoding DNA abundance (4.5 h post-induction vs induction); higher = less antimicrobial activity (less host growth inhibition)
# Conditions: time post-induction: 4.5 h; library: site-saturation at positions 5, 18, 19, 20
# 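Further: peptides expressed intracellularly from a pBAD plasmid library in pooled LB shake-flask culture, induced with 0.3% L-arabinose, DNA abundance read by NGS, three biological replicates, DESeq2 with apeglm shrinkage.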
row,Sequence,shrunken log2 fold change
1,RRIRARPPRLPRPRPRPCRKPRP,-0.232
2,RRIRKRPPRLPRPRPRPIPEPRP,0.163
3,RRIRGRPPRLPRPRPRPVYEPRP,0.271
4,RRIRYRPPRLPRPRPRPHAIPRP,-0.268
5,RRIRVRPPRLPRPRPRPLCAPRP,0.17
6,RRIRLRPPRLPRPRPRPKQGPRP,-0.0685
7,RRIRCRPPRLPRPRPRPKPGPRP,0.503
8,RRIRFRPPRLPRPRPRPYHNPRP,-0.882
9,RRIRSRPPRLPRPRPRPKVPPRP,0.0195
10,RRIRVRPPRLPRPRPRPFADPRP,-0.0225
11,RRIRARPPRLPRPRPRPCIQPRP,0.151
12,RRIRPRPPRLPRPRPRPWTYPRP,-0.0785
13,RRIRNRPPRLPRPRPRPSQWPRP,-0.194
14,RRIRARPPRLPRPRPRPLIFPRP,0.000397
15,RRIRVRPPRLPRPRPRPQWTPRP,-0.17
16,RRIRPRPPRLPRPRPRPLTHPRP,-0.108
17,RRIRDRPPRLPRPRPRPIKRPRP,0.000716
18,RRIRRRPPRLPRPRPRPMYIPRP,-0.73
19,RRIRSRPPRLPRPRPRPPGFPRP,0.467
20,RRIRMRPPRLPRPRPRPKWIPRP,-0.124
21,RRIRVRPPRLPRPRPRPRFTPRP,-0.0651
22,RRIRYRPPRLPRPRPRPTDYPRP,-0.746
23,RRIRRRPPRLPRPRPRPSRLPRP,0.177
24,RRIRYRPPRLPRPRPRPWMTPRP,-0.663
25,RRIRTRPPRLPRPRPRPIACPRP,-0.0974

row,Sequence,shrunken log2 fold change
1,RRIRCRPPRLPRPRPRPLHCPRP,-0.1
2,RRIRPRPPRLPRPRPRPTYFPRP,-0.179
3,RRIRNRPPRLPRPRPRPVTTPRP,0.171
4,RRIRPRPPRLPRPRPRPMLSPRP,0.0181
5,RRIRNRPPRLPRPRPRPGYVPRP,-0.077
6,RRIRFRPPRLPRPRPRPNWWPRP,-0.0248
7,RRIRVRPPRLPRPRPRPSSVPRP,-0.529
8,RRIRPRPPRLPRPRPRPQRSPRP,0.265
9,RRIRFRPPRLPRPRPRPMITPRP,-0.33
10,RRIRPRPPRLPRPRPRPLLWPRP,0.0186
11,RRIRGRPPRLPRPRPRPEEGPRP,0.0303
12,RRIRKRPPRLPRPRPRPQEGPRP,-0.00136
13,RRIRQRPPRLPRPRPRPCRKPRP,0.0642
14,RRIRWRPPRLPRPRPRPHKCPRP,0.188
15,RRIRVRPPRLPRPRPRPWKHPRP,-0.0202
16,RRIRPRPPRLPRPRPRPMMTPRP,-0.146
17,RRIRNRPPRLPRPRPRPAPGPRP,0.164
18,RRIRFRPPRLPRPRPRPVAQPRP,0.0899
19,RRIRWRPPRLPRPRPRPYNGPRP,-0.668
20,RRIRYRPPRLPRPRPRPYWPPRP,-0.0534
21,RRIRVRPPRLPRPRPRPYAVPRP,-0.481
22,RRIRTRPPRLPRPRPRPACKPRP,0.172
23,RRIRRRPPRLPRPRPRPRMVPRP,0.218
24,RRIRYRPPRLPRPRPRPFLPPRP,-0.557
25,RRIRRRPPRLPRPRPRPIPMPRP,0.287

row,Sequence,shrunken log2 fold change
1,RRIRARPPRLPRPRPRPGSKPRP,0.227
2,RRIRYRPPRLPRPRPRPACCPRP,-0.405
3,RRIRARPPRLPRPRPRPGACPRP,0.783
4,RRIRSRPPRLPRPRPRPIVPPRP,-0.0492
5,RRIRTRPPRLPRPRPRPKGQPRP,0.0118
6,RRIRTRPPRLPRPRPRPMEYPRP,-0.0122
7,RRIRLRPPRLPRPRPRPHNLPRP,-0.11
8,RRIRGRPPRLPRPRPRPRYRPRP,0.0699
9,RRIRERPPRLPRPRPRPEASPRP,-0.0341
10,RRIRWRPPRLPRPRPRPTTWPRP,0.297
11,RRIRLRPPRLPRPRPRPNVTPRP,-0.286
12,RRIRQRPPRLPRPRPRPRIVPRP,0.01
13,RRIRIRPPRLPRPRPRPEIDPRP,-0.157
14,RRIRERPPRLPRPRPRPSTTPRP,-0.285
15,RRIRGRPPRLPRPRPRPIWWPRP,0.922
16,RRIRTRPPRLPRPRPRPDHQPRP,-0.0261
17,RRIRTRPPRLPRPRPRPNFWPRP,0.31
18,RRIRERPPRLPRPRPRPSTSPRP,-0.145
19,RRIRIRPPRLPRPRPRPNWEPRP,0.00543
20,RRIRNRPPRLPRPRPRPDHQPRP,0.113
21,RRIRSRPPRLPRPRPRPGEGPRP,0.367
22,RRIRIRPPRLPRPRPRPMQSPRP,0.0163
23,RRIRCRPPRLPRPRPRPNHDPRP,-0.589
24,RRIRQRPPRLPRPRPRPTIFPRP,-0.0347
25,RRIRLRPPRLPRPRPRPHMWPRP,-0.325

row,Sequence,shrunken log2 fold change
1,RRIRHRPPRLPRPRPRPTAVPRP,-0.295
2,RRIRWRPPRLPRPRPRPLWHPRP,-0.0484
3,RRIRERPPRLPRPRPRPDSNPRP,-0.00994
4,RRIRKRPPRLPRPRPRPESTPRP,1.38
5,RRIRVRPPRLPRPRPRPHQHPRP,-0.189
6,RRIRSRPPRLPRPRPRPNYIPRP,-0.757
7,RRIRWRPPRLPRPRPRPCYYPRP,-0.0954
8,RRIRWRPPRLPRPRPRPYIGPRP,-0.127
9,RRIRKRPPRLPRPRPRPTTHPRP,0.495
10,RRIRRRPPRLPRPRPRPHMLPRP,-0.0594
11,RRIRFRPPRLPRPRPRPFNKPRP,-0.729
12,RRIRERPPRLPRPRPRPTVYPRP,-0.194
13,RRIRTRPPRLPRPRPRPHCAPRP,-0.0401
14,RRIRLRPPRLPRPRPRPHTCPRP,-0.339
15,RRIRARPPRLPRPRPRPGADPRP,0.832
16,RRIRSRPPRLPRPRPRPLLRPRP,-0.107
17,RRIRYRPPRLPRPRPRPFDLPRP,-0.967
18,RRIRWRPPRLPRPRPRPLRHPRP,0.751
19,RRIRTRPPRLPRPRPRPTRHPRP,0.237
20,RRIRVRPPRLPRPRPRPQADPRP,0.0259
21,RRIRLRPPRLPRPRPRPIWFPRP,0.0419
22,RRIRSRPPRLPRPRPRPCGRPRP,-0.485
23,RRIRWRPPRLPRPRPRPQQKPRP,-0.0581
24,RRIRMRPPRLPRPRPRPLVWPRP,0.955
25,RRIRHRPPRLPRPRPRPLNEPRP,-0.124

row,Sequence,shrunken log2 fold change
1,RRIRPRPPRLPRPRPRPYLVPRP,-0.203
2,RRIRSRPPRLPRPRPRPQLAPRP,0.0789
3,RRIRFRPPRLPRPRPRPSCDPRP,-0.314
4,RRIRKRPPRLPRPRPRPQKNPRP,0.319
5,RRIRLRPPRLPRPRPRPFKQPRP,-0.0215
6,RRIRMRPPRLPRPRPRPEQIPRP,0.527
7,RRIRTRPPRLPRPRPRPSAAPRP,0.186
8,RRIRFRPPRLPRPRPRPRYQPRP,-0.738
9,RRIRERPPRLPRPRPRPSRWPRP,1.41
10,RRIRRRPPRLPRPRPRPKLGPRP,0.141
11,RRIRHRPPRLPRPRPRPKWQPRP,0.0671
12,RRIRPRPPRLPRPRPRPEYMPRP,-0.193
13,RRIRSRPPRLPRPRPRPIFGPRP,0.0746
14,RRIRVRPPRLPRPRPRPMGHPRP,0.0767
15,RRIRPRPPRLPRPRPRPYAPPRP,-0.207
16,RRIRMRPPRLPRPRPRPTDSPRP,0.0971
17,RRIRNRPPRLPRPRPRPCNSPRP,-0.0484
18,RRIRRRPPRLPRPRPRPEHFPRP,0.301
19,RRIRTRPPRLPRPRPRPVRKPRP,0.00119
20,RRIRDRPPRLPRPRPRPHWCPRP,-0.116
21,RRIRRRPPRLPRPRPRPIIWPRP,-0.0862
22,RRIRTRPPRLPRPRPRPLTGPRP,-0.0139
23,RRIRYRPPRLPRPRPRPSLIPRP,-1.15
24,RRIRRRPPRLPRPRPRPVLAPRP,0.83
25,RRIRHRPPRLPRPRPRPHHPPRP,0.0301

row,Sequence,shrunken log2 fold change
1,RRIRMRPPRLPRPRPRPKWGPRP,0.729
2,RRIRHRPPRLPRPRPRPVMWPRP,0.21
3,RRIRKRPPRLPRPRPRPPSAPRP,0.798
4,RRIRWRPPRLPRPRPRPHGCPRP,0.0126
5,RRIRCRPPRLPRPRPRPTGVPRP,0.619
6,RRIRARPPRLPRPRPRPRDPPRP,0.948
7,RRIRSRPPRLPRPRPRPVRKPRP,0.324
8,RRIRHRPPRLPRPRPRPWRTPRP,-0.229
9,RRIRWRPPRLPRPRPRPDPHPRP,0.135
10,RRIRTRPPRLPRPRPRPQYNPRP,-0.856
11,RRIRWRPPRLPRPRPRPYNIPRP,-0.243
12,RRIRKRPPRLPRPRPRPPPHPRP,0.781
13,RRIRLRPPRLPRPRPRPWVVPRP,0.0937
14,RRIRRRPPRLPRPRPRPDTKPRP,-0.139
15,RRIRPRPPRLPRPRPRPDLQPRP,-0.221
16,RRIRTRPPRLPRPRPRPDVMPRP,-0.00136
17,RRIRSRPPRLPRPRPRPMQTPRP,0.291
18,RRIRDRPPRLPRPRPRPDDQPRP,0.259
19,RRIRMRPPRLPRPRPRPKCTPRP,0.995
20,RRIRLRPPRLPRPRPRPCQKPRP,-0.17
21,RRIRWRPPRLPRPRPRPTYGPRP,0.0553
22,RRIRLRPPRLPRPRPRPSWEPRP,0.0244
23,RRIRWRPPRLPRPRPRPQYDPRP,-0.212
24,RRIRSRPPRLPRPRPRPTADPRP,0.275
25,RRIRQRPPRLPRPRPRPEKPPRP,-0.129

# From the supplement of paper PMC9112550, “Optimization of the antimicrobial peptide Bac7 by deep mutational scanning” (BMC Biology, 2022)
